Data on eight molecules can be found in patent US12630600B2 (MEDIMMUNE LIMITED, priority 2022, dated 2026).

Starred links: 1 amine or outer side, 2 acyl side, 3 side chain; linkers in the order of their positions; H or OH if unused. Non-standard residues stand in square brackets, D forms with d. Groups on a side chain read outwards from the residue. No end group written: not given here. *: point of attachment. C20 diacid = O=C(O)CCCCCCCCCCCCCCCCCCC(=O)*; C18 diacid = O=C(O)CCCCCCCCCCCCCCCCC(=O)*; γGlu = O=C(O)[C@H](CCC(=O)[*:2])N[*:1]; αMeF = C[C@](N)(Cc1ccccc1)C(=O)O; AEEA = NCCOCCOCC(=O)O; Aib = CC(C)(N)C(=O)O

For one test, the target named is human GLP-1 receptor (human, UniProt P43220). As to the kind of experiment: cell-based or functional assay.
In another test the target is human glucagon receptor (human, UniProt P47871). Briefly: cell-based or functional assay.

In the case of H[Aib]QGTFTSDVSK[αMeF]LDSK([AEEA-AEEA-γGlu-C18 diacid])RAQDFVQWLL[Aib]TE-OH (not fully specified) [Peptide 150], the results for the “cAMP production EC50” value in the test with human GLP-1 receptor and with human glucagon receptor were 0.166 nM and 0.355 nM, respectively.

B1: Peptide 144 (peptide)
peptide: H[Aib]QGTFTSDVSK[αMeF]LDSK([γGlu-γGlu-AEEA-AEEA-γGlu-γGlu-C18 diacid])RARDFVRWLLE[Aib]G-OH
modifications: N-terminus assumed
SMILES: CC(C)C[C@H](NC(=O)[C@H](Cc1c[nH]c2ccccc12)NC(=O)[C@H](CCCNC(=N)N)NC(=O)[C@@H](NC(=O)[C@H](Cc1ccccc1)NC(=O)[C@H](CC(=O)O)NC(=O)[C@H](CCCNC(=N)N)NC(=O)[C@H](C)NC(=O)[C@H](CCCNC(=N)N)NC(=O)[C@H](CCCCNC(=O)CC[C@H](NC(=O)CC[C@H](NC(=O)COCCOCCNC(=O)COCCOCCNC(=O)CC[C@H](NC(=O)CC[C@H](NC(=O)CCCCCCCCCCCCCCCCC(=O)O)C(=O)O)C(=O)O)C(=O)O)C(=O)O)NC(=O)[C@H](CO)NC(=O)[C@H](CC(=O)O)NC(=O)[C@H](CC(C)C)NC(=O)[C@](C)(Cc1ccccc1)NC(=O)[C@H](CCCCN)NC(=O)[C@H](CO)NC(=O)[C@@H](NC(=O)[C@H](CC(=O)O)NC(=O)[C@H](CO)NC(=O)[C@@H](NC(=O)[C@H](Cc1ccccc1)NC(=O)[C@@H](NC(=O)CNC(=O)[C@H](CCC(N)=O)NC(=O)C(C)(C)NC(=O)[C@@H](N)Cc1c[nH]cn1)[C@@H](C)O)[C@@H](C)O)C(C)C)C(C)C)C(=O)N[C@@H](CC(C)C)C(=O)N[C@@H](CCC(=O)O)C(=O)NC(C)(C)C(=O)NCC(=O)O
Consider B1, for which the entries for the “cAMP production EC50” value in the test with human GLP-1 receptor and with human glucagon receptor were 0.0452 nM and 0.702 nM, respectively.

B2: Peptide 147 (peptide)
peptide: H[Aib]QGTFTSDVSK[αMeF]LDSK([AEEA-AEEA-γGlu-C18 diacid])RAQDFVRWLEA[Aib]G-OH
modifications: N-terminus assumed
SMILES: CC(C)C[C@H](NC(=O)[C@H](Cc1c[nH]c2ccccc12)NC(=O)[C@H](CCCNC(=N)N)NC(=O)[C@@H](NC(=O)[C@H](Cc1ccccc1)NC(=O)[C@H](CC(=O)O)NC(=O)[C@H](CCC(N)=O)NC(=O)[C@H](C)NC(=O)[C@H](CCCNC(=N)N)NC(=O)[C@H](CCCCNC(=O)COCCOCCNC(=O)COCCOCCNC(=O)CC[C@H](NC(=O)CCCCCCCCCCCCCCCCC(=O)O)C(=O)O)NC(=O)[C@H](CO)NC(=O)[C@H](CC(=O)O)NC(=O)[C@H](CC(C)C)NC(=O)[C@](C)(Cc1ccccc1)NC(=O)[C@H](CCCCN)NC(=O)[C@H](CO)NC(=O)[C@@H](NC(=O)[C@H](CC(=O)O)NC(=O)[C@H](CO)NC(=O)[C@@H](NC(=O)[C@H](Cc1ccccc1)NC(=O)[C@@H](NC(=O)CNC(=O)[C@H](CCC(N)=O)NC(=O)C(C)(C)NC(=O)[C@@H](N)Cc1c[nH]cn1)[C@@H](C)O)[C@@H](C)O)C(C)C)C(C)C)C(=O)N[C@@H](CCC(=O)O)C(=O)N[C@@H](C)C(=O)NC(C)(C)C(=O)NCC(=O)O
Regarding B2, the “cAMP production EC50” value with human GLP-1 receptor was determined as 0.0153 nM; with human glucagon receptor it was 0.0435 nM.

B3: Peptide 149 (peptide)
peptide: H[Aib]QGTFTSDVSK[αMeF]LDSK([AEEA-AEEA-γGlu-C18 diacid])RAQDFVRWVVE[Aib]G-OH
modifications: N-terminus assumed
SMILES: CC(C)C[C@H](NC(=O)[C@](C)(Cc1ccccc1)NC(=O)[C@H](CCCCN)NC(=O)[C@H](CO)NC(=O)[C@@H](NC(=O)[C@H](CC(=O)O)NC(=O)[C@H](CO)NC(=O)[C@@H](NC(=O)[C@H](Cc1ccccc1)NC(=O)[C@@H](NC(=O)CNC(=O)[C@H](CCC(N)=O)NC(=O)C(C)(C)NC(=O)[C@@H](N)Cc1c[nH]cn1)[C@@H](C)O)[C@@H](C)O)C(C)C)C(=O)N[C@@H](CC(=O)O)C(=O)N[C@@H](CO)C(=O)N[C@@H](CCCCNC(=O)COCCOCCNC(=O)COCCOCCNC(=O)CC[C@H](NC(=O)CCCCCCCCCCCCCCCCC(=O)O)C(=O)O)C(=O)N[C@@H](CCCNC(=N)N)C(=O)N[C@@H](C)C(=O)N[C@@H](CCC(N)=O)C(=O)N[C@@H](CC(=O)O)C(=O)N[C@@H](Cc1ccccc1)C(=O)N[C@H](C(=O)N[C@@H](CCCNC(=N)N)C(=O)N[C@@H](Cc1c[nH]c2ccccc12)C(=O)N[C@H](C(=O)N[C@H](C(=O)N[C@@H](CCC(=O)O)C(=O)NC(C)(C)C(=O)NCC(=O)O)C(C)C)C(C)C)C(C)C
As to B3, the entries for the “cAMP production EC50” value with human GLP-1 receptor and with human glucagon receptor were 0.00871 nM and 2.65 nM, respectively.

B4: Peptide 146 (peptide)
peptide: H[Aib]QGTFTSDVSK[αMeF]LDSK([AEEA-AEEA-γGlu-C18 diacid])RAQDFVRWLASR-OH
modifications: N-terminus assumed
SMILES: CC(C)C[C@H](NC(=O)[C@H](Cc1c[nH]c2ccccc12)NC(=O)[C@H](CCCNC(=N)N)NC(=O)[C@@H](NC(=O)[C@H](Cc1ccccc1)NC(=O)[C@H](CC(=O)O)NC(=O)[C@H](CCC(N)=O)NC(=O)[C@H](C)NC(=O)[C@H](CCCNC(=N)N)NC(=O)[C@H](CCCCNC(=O)COCCOCCNC(=O)COCCOCCNC(=O)CC[C@H](NC(=O)CCCCCCCCCCCCCCCCC(=O)O)C(=O)O)NC(=O)[C@H](CO)NC(=O)[C@H](CC(=O)O)NC(=O)[C@H](CC(C)C)NC(=O)[C@](C)(Cc1ccccc1)NC(=O)[C@H](CCCCN)NC(=O)[C@H](CO)NC(=O)[C@@H](NC(=O)[C@H](CC(=O)O)NC(=O)[C@H](CO)NC(=O)[C@@H](NC(=O)[C@H](Cc1ccccc1)NC(=O)[C@@H](NC(=O)CNC(=O)[C@H](CCC(N)=O)NC(=O)C(C)(C)NC(=O)[C@@H](N)Cc1c[nH]cn1)[C@@H](C)O)[C@@H](C)O)C(C)C)C(C)C)C(=O)N[C@@H](C)C(=O)N[C@@H](CO)C(=O)N[C@@H](CCCNC(=N)N)C(=O)O
For the molecule B4, the “cAMP production EC50” value with human GLP-1 receptor came out at 0.0246 nM; with human glucagon receptor, 1.63 nM.

B5: Peptide 151 (peptide)
peptide: H[Aib]QGTFTSDVSK[αMeF]LDSK([AEEA-AEEA-γGlu-C20 diacid])RAQDFVRWLL[Aib]TE-OH
modifications: N-terminus assumed
SMILES: CC(C)C[C@H](NC(=O)[C@H](Cc1c[nH]c2ccccc12)NC(=O)[C@H](CCCNC(=N)N)NC(=O)[C@@H](NC(=O)[C@H](Cc1ccccc1)NC(=O)[C@H](CC(=O)O)NC(=O)[C@H](CCC(N)=O)NC(=O)[C@H](C)NC(=O)[C@H](CCCNC(=N)N)NC(=O)[C@H](CCCCNC(=O)COCCOCCNC(=O)COCCOCCNC(=O)CC[C@H](NC(=O)CCCCCCCCCCCCCCCCCCC(=O)O)C(=O)O)NC(=O)[C@H](CO)NC(=O)[C@H](CC(=O)O)NC(=O)[C@H](CC(C)C)NC(=O)[C@](C)(Cc1ccccc1)NC(=O)[C@H](CCCCN)NC(=O)[C@H](CO)NC(=O)[C@@H](NC(=O)[C@H](CC(=O)O)NC(=O)[C@H](CO)NC(=O)[C@@H](NC(=O)[C@H](Cc1ccccc1)NC(=O)[C@@H](NC(=O)CNC(=O)[C@H](CCC(N)=O)NC(=O)C(C)(C)NC(=O)[C@@H](N)Cc1c[nH]cn1)[C@@H](C)O)[C@@H](C)O)C(C)C)C(C)C)C(=O)N[C@@H](CC(C)C)C(=O)NC(C)(C)C(=O)N[C@H](C(=O)N[C@@H](CCC(=O)O)C(=O)O)[C@@H](C)O
Take B5: the “cAMP production EC50” value came out at 0.111 nM in the test with human GLP-1 receptor and 0.178 nM in the test with human glucagon receptor.

B6: Peptide 148 (peptide)
peptide: H[Aib]QGTFTSDVSK[αMeF]LDSK([AEEA-AEEA-γGlu-C18 diacid])RAQDFVRWIAE[Aib]G-OH
modifications: N-terminus assumed
SMILES: CC[C@H](C)[C@H](NC(=O)[C@H](Cc1c[nH]c2ccccc12)NC(=O)[C@H](CCCNC(=N)N)NC(=O)[C@@H](NC(=O)[C@H](Cc1ccccc1)NC(=O)[C@H](CC(=O)O)NC(=O)[C@H](CCC(N)=O)NC(=O)[C@H](C)NC(=O)[C@H](CCCNC(=N)N)NC(=O)[C@H](CCCCNC(=O)COCCOCCNC(=O)COCCOCCNC(=O)CC[C@H](NC(=O)CCCCCCCCCCCCCCCCC(=O)O)C(=O)O)NC(=O)[C@H](CO)NC(=O)[C@H](CC(=O)O)NC(=O)[C@H](CC(C)C)NC(=O)[C@](C)(Cc1ccccc1)NC(=O)[C@H](CCCCN)NC(=O)[C@H](CO)NC(=O)[C@@H](NC(=O)[C@H](CC(=O)O)NC(=O)[C@H](CO)NC(=O)[C@@H](NC(=O)[C@H](Cc1ccccc1)NC(=O)[C@@H](NC(=O)CNC(=O)[C@H](CCC(N)=O)NC(=O)C(C)(C)NC(=O)[C@@H](N)Cc1c[nH]cn1)[C@@H](C)O)[C@@H](C)O)C(C)C)C(C)C)C(=O)N[C@@H](C)C(=O)N[C@@H](CCC(=O)O)C(=O)NC(C)(C)C(=O)NCC(=O)O
B6: the “cAMP production EC50” value with human GLP-1 receptor was 0.0402 nM; with human glucagon receptor, 0.568 nM.

B7: Peptide 145 (peptide)
peptide: H[Aib]QGTFTSDVSK[αMeF]LDSK([AEEA-AEEA-γGlu-C18 diacid])RAQDFVRWLASRGI-OH
modifications: N-terminus assumed
SMILES: CC[C@H](C)[C@H](NC(=O)CNC(=O)[C@H](CCCNC(=N)N)NC(=O)[C@H](CO)NC(=O)[C@H](C)NC(=O)[C@H](CC(C)C)NC(=O)[C@H](Cc1c[nH]c2ccccc12)NC(=O)[C@H](CCCNC(=N)N)NC(=O)[C@@H](NC(=O)[C@H](Cc1ccccc1)NC(=O)[C@H](CC(=O)O)NC(=O)[C@H](CCC(N)=O)NC(=O)[C@H](C)NC(=O)[C@H](CCCNC(=N)N)NC(=O)[C@H](CCCCNC(=O)COCCOCCNC(=O)COCCOCCNC(=O)CC[C@H](NC(=O)CCCCCCCCCCCCCCCCC(=O)O)C(=O)O)NC(=O)[C@H](CO)NC(=O)[C@H](CC(=O)O)NC(=O)[C@H](CC(C)C)NC(=O)[C@](C)(Cc1ccccc1)NC(=O)[C@H](CCCCN)NC(=O)[C@H](CO)NC(=O)[C@@H](NC(=O)[C@H](CC(=O)O)NC(=O)[C@H](CO)NC(=O)[C@@H](NC(=O)[C@H](Cc1ccccc1)NC(=O)[C@@H](NC(=O)CNC(=O)[C@H](CCC(N)=O)NC(=O)C(C)(C)NC(=O)[C@@H](N)Cc1c[nH]cn1)[C@@H](C)O)[C@@H](C)O)C(C)C)C(C)C)C(=O)O
Consider B7, for which the “cAMP production EC50” value in the test with human GLP-1 receptor was found to be 0.0226 nM; in the test with human glucagon receptor, 4.59 nM.
